Data: patent US20200223910A1 (STERLING IP, published 2020)

T1: mouse TNC rCd4-His-FBG (rat; mouse, UniProt P05540 209-391; Q80YX1 1883-2110, limits assumed)
T1 construct: domain: domains 3 and 4;domain: FBG; Biotinylated in the capture ELISA; also called Mu TNC; mTNC; not shown: 6His tag
T1 sequence (chain (part 1 of 2), looked up): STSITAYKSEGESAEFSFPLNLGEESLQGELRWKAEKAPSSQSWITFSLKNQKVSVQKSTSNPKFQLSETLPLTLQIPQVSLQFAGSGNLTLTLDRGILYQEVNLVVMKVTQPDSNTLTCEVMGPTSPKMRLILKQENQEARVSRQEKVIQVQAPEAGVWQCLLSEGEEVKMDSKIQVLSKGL
T1 sequence (chain (part 2 of 2), looked up): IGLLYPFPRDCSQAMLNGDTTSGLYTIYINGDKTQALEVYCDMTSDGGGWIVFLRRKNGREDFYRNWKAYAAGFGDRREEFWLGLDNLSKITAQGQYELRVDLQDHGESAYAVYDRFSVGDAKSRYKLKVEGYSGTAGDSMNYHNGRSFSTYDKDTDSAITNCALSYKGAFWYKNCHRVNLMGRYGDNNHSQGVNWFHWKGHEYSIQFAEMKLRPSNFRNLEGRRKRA

T2: human TNC rCd4-His-FBG (rat; human, UniProt P05540 209-391; P24821 1974-2201, limits assumed)
T2 construct: domain: domains 3 and 4;domain: FBG; C-terminal FBG fusion made in HEK293F cells; biotinylated in the ELISA and HTRF assays; also called Hu TNC; hTNC; not shown: 6His tag
T2 sequence (chain (part 1 of 2), looked up): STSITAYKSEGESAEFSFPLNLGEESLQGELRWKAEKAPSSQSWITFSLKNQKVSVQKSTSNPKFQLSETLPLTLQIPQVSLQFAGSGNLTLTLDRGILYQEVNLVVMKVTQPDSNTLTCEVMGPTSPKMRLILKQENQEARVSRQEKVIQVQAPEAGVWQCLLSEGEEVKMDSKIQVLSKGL
T2 sequence (chain (part 2 of 2), looked up): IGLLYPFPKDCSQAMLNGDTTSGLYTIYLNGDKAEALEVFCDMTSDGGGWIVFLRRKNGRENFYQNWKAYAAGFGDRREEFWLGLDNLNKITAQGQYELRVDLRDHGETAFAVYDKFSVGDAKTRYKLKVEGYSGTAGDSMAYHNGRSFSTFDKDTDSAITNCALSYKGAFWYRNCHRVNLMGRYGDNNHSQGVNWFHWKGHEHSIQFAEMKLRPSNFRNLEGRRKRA


Key:
[1] = target: T1, mouse TNC rCd4-His-FBG; assay: anti-FLAG capture DELFIA ELISA, scFv supernatant, biotinylated mouse rCd4-His-FBG
Protocol: E. coli clones harbouring scFv pSANG10 expression plasmids were induced in 96-well plates with auto-induction media as described previously (Schofield et al, 2007). E. coli supernatants were harvested for ELISA assays. ELISA used the DELFIA (dissociation enhanced lanthanide fluorescent immunoassay) system with Europium-labelled anti-FLAG antibody (Sigma, Aldrich, UK). Black immunosorb plates (Nunc) were coated overnight with anti-FLAG M2 antibody (Sigma, F3165, 5 μg/ml in PBS, 50 μl per well), in wells blocked by the addition of 2% milk powder, PBS (PBS-M, 300 μl per well). Plates were washed three times with PBS-T (PBS, 0.1% Tween-20) and three times with PBS followed by the addition of a 1:2 dilution of 96-well auto-induction culture supernatants containing expressed scFv in PBS-M (50 μl per well). The plates were incubated for 1 h, washed as above and biotinylated mouse or human rCd4-His-FBG ([…] in PBS-M, 50 μl) added to each well. Plates were incubated for a further 1 h, washed and Strepravidin-Eu added (Perkin Elmer, 1 μg/ml, PBS-M, 50 μl), incubated for 30 min, washed and DELFIA enhancement solution added (50 μl) and plates read on a Perkin Elmer Fusion plate reader (excitation=320 nm, emission 620 nm).

[2] = target: T2, human TNC rCd4-His-FBG; assay: HTRF competition, scFv supernatant; competitor d2-labelled B12 IgG
Protocol: IgG antibodies were labelled using the d2 labelling kit (CisBio, 62D2DPEA) as directed by the manufacturer. Streptavidin europium cryptate (CisBio, 610SAKLA, Lot#25C) was used at a final concentration of 1.8 ng active moiety (SA) per 20 μl reaction as recommended by the manufacturer. Biotinylated rCd4-His-FBG was prepared using EZ-link Sulfo-NHS-LC-Biotin reagent (Thermo Scientific, 21327) the extent of biotinylation was quantified using biotinylation fluorescence quantitation kit (Thermo Scientific, 46610). Where appropriate, supernatants containing scFv (prepared as described above for ELISA assays) were added to the 384-well assay plate at a final dilution of 1/20 (i.e. ⅕ dilution in assay buffer followed by addition of 5 μl diluted sample to the 20 μl FRET assay). The concentrations of d2-labelled B12 IgG used for screening were 1.25 nM. Unless otherwise stated, biotinylated rCd4-His-FBG (biotin:protein ratio=1.8:1) was present at either 2.2 nM (in assays using the 2A5 IgG antibody) or 1 nM (in experiments using B12 IgG). Samples were incubated for approximately 1 h at room temperature and the FRET signal was determined using a BMG Pherastar instrument: excitation=320 nm; emission=620 nm and 665 nm; integration start time=60 μs; integration time=500 μs; 100 flashes per well. For competition assays containing culture supernatant, biotinylated rCd4-His-FBG antigen was pre-incubated with streptavidin europium cryptate for 45 min prior to addition of reagents to the assay plate. All FRET signals are presented as ΔR, where R =(E665/E620×104) and ΔR =(Rsample-Rbackground fluorescence).
Culture supernatants containing unlabelled scFv clones from affinity selected mutant libraries were tested for inhibition of the interaction between FBG and the fluorophore-labelled parental IgG antibody. […] The parental clones, expressed as scFvs in parallel with the affinity matured clones, were used as benchmarks.

Binder | fold improvement for mouse FBG binding against parent B12 [1] | % inhibition of HTRF signal [2]
165_13_D1 scFv (scFv, V domains shown, scFv in E. coli supernatant) VH: QVQLVESGGGLVQPGRSLRLSCAASGFTFDDYAMHWVRQAPGKGLEWVSGISGSGGSTYYADSVKGRFTISRDNAKNSLYLQMNSLRAEDTALYYCAKGTRGEGDTFDIWGQGTMVTVSS VL: DIQMTQSPASLPTPVGDRVTITCRASQYIQGFLNWYQQKPGKAPKLLIYDASNLETGVPSRFSGSGSGTDFTLTISSLQPEDFATYYCQQSYSTPQTFGQGTKVDIKR | ≥ 4 fold | 
165_13_E1 scFv (scFv, V domains shown, scFv in E. coli supernatant) VH: QVQLVESGGGLVQPGRSLRLSCAASGFTFDDYAMHWVRQAPGKGLEWVSGISGSGGSTYYADSVKGRFTISRDNAKNSLYLQMNSLRAEDTALYYCAKDISAVMDVPQTWGQGTMVTVSS VL: DIQMTQSPASLPTPVGDRVTITCRASQYIQGFLNWYQQKPGKAPKLLIYDASNLETGVPSRFSGSGSGTDFTLTISSLQPEDFATYYCQQSYSTPQTFGQGTKVDIKR | ≥ 4 fold | ≥ 91%
165_13_C3 scFv (scFv, V domains shown, scFv in E. coli supernatant) VH: QVQLVESGGGLVQPGRSLRLSCAASGFTFDDYAMHWVRQAPGKGLEWVSGISGSGGSTYYADSVKGRFTISRDNAKNSLYLQMNSLRAEDTALYYCAKSYQSDEDAFDIWGQGTMVTVSS VL: DIQMTQSPASLPTPVGDRVTITCRASQYIQGFLNWYQQKPGKAPKLLIYDASNLETGVPSRFSGSGSGTDFTLTISSLQPEDFATYYCQQSYSTPQTFGQGTKVDIKR | ≥ 4 fold | ≥ 91%
165_13_B1 scFv (scFv, V domains shown, scFv in E. coli supernatant (pSANG10, FLAG-tagged)) VH: QVQLVESGGGLVQPGRSLRLSCAASGFTFDDYAMHWVRQAPGKGLEWVSGISGSGGSTYYADSVKGRFTISRDNAKNSLYLQMNSLRAEDTALYYCAKVMSSMEDAFDIWGQGTMVTVSS VL: DIQMTQSPASLPTPVGDRVTITCRASQYIQGFLNWYQQKPGKAPKLLIYDASNLETGVPSRFSGSGSGTDFTLTISSLQPEDFATYYCQQSYSTPQTFGQGTKVDIKR | ≥ 4 fold | 
165_13_B3 scFv (scFv, V domains shown, scFv in E. coli supernatant) VH: QVQLVESGGGLVQPGRSLRLSCAASGFTFDDYAMHWVRQAPGKGLEWVSGISGSGGSTYYADSVKGRFTISRDNAKNSLYLQMNSLRAEDTALYYCAKALARGHDTFDIWGQGTMVTVSS VL: DIQMTQSPASLPTPVGDRVTITCRASQYIQGFLNWYQQKPGKAPKLLIYDASNLETGVPSRFSGSGSGTDFTLTISSLQPEDFATYYCQQSYSTPQTFGQGTKVDIKR | ≥ 4 fold | ≥ 91%
180_11_F5 scFv (scFv, V domains shown, scFv in E. coli supernatant) VH: QVQLVESGGGLVQPGRSLRLSCAASGFTFDDYAMHWVRQAPGKGLEWVSGISGSGGSTYYADSVKGRFTISRDNAKNSLYLQMNSLRAEDTALYYCAKVMRTGLDTFDIWGQGTMVTVSS VL: DIQMTQSPASLPTPVGDRVTITCRASQYIQGFLNWYQQKPGKAPKLLIYDASNLETGVPSRFSGSGSGTDFTLTISSLQPEDFATYYCQQSYSTPQTFGQGTKVDIKR | ≥ 4 fold | ≥ 91%
165_13_D4 scFv (scFv, V domains shown, scFv in E. coli supernatant) VH: QVQLVESGGGLVQPGRSLRLSCAASGFTFDDYAMHWVRQAPGKGLEWVSGISGSGGSTYYADSVKGRFTISRDNAKNSLYLQMNSLRAEDTALYYCAKGTVGEGDTFDIWGQGTMVTVSS VL: DIQMTQSPASLPTPVGDRVTITCRASQYIQGFLNWYQQKPGKAPKLLIYDASNLETGVPSRFSGSGSGTDFTLTISSLQPEDFATYYCQQSYSTPQTFGQGTKVDIKR | ≥ 4 fold | ≥ 91%
165_13_B6 scFv (scFv, V domains shown, scFv in E. coli supernatant) VH: QVQLVESGGGLVQPGRSLRLSCAASGFTFDDYAMHWVRQAPGKGLEWVSGISGSGGSTYYADSVKGRFTISRDNAKNSLYLQMNSLRAEDTALYYCAKGQKGEGDTFDIWGQGTMVTVSS VL: DIQMTQSPASLPTPVGDRVTITCRASQYIQGFLNWYQQKPGKAPKLLIYDASNLETGVPSRFSGSGSGTDFTLTISSLQPEDFATYYCQQSYSTPQTFGQGTKVDIKR | ≥ 4 fold | 
165_13_A4 scFv (scFv, V domains shown, scFv in E. coli supernatant) VH: QVQLVESGGGLVQPGRSLRLSCAASGFTFDDYAMHWVRQAPGKGLEWVSGISGSGGSTYYADSVKGRFTISRDNAKNSLYLQMNSLRAEDTALYYCAKDKYPVLDTFDIWGQGTMVTVSS VL: DIQMTQSPASLPTPVGDRVTITCRASQYIQGFLNWYQQKPGKAPKLLIYDASNLETGVPSRFSGSGSGTDFTLTISSLQPEDFATYYCQQSYSTPQTFGQGTKVDIKR | ≥ 4 fold | ≥ 91%
